Data set [1] has as its target T1, Hfq65 (Hfq core, CTD deleted) (Escherichia coli, UniProt P0A6X3 1-65). Briefly: EMSA; 33.3 nM hexamer, 10 C; most stable ternary complex; Anisotropy: 10 mM Tris-HCl pH 7.5, 50 mM NaCl, 50 mM KCl, 30 C; CTD-FITC competition: 50 mM Tris-HCl pH 7.5, 30 C; pUC19 EMSA: 40 mM Tris-HCl pH 7.5, 0.14 mM EDTA, 35 mM NH4Cl, 3.7% glycerol, 25 C (competition legend 30 C). The following applies: protein: recombinant; tags: untagged; chain copies: 6; label: 32P on ChiX; partial RNA-RNA duplex. A general note: In EMSA bound probe runs differently from free probe, usually more slowly.

Data set [2] has as its target T2, Hfq102 (wild-type Hfq) (Escherichia coli, UniProt P0A6X3 1-102). As to the kind of experiment: EMSA; 33.3 nM hexamer, 10 C; less ternary complex than Hfq65; Anisotropy: 10 mM Tris-HCl pH 7.5, 50 mM NaCl, 50 mM KCl, 30 C; CTD-FITC competition: 50 mM Tris-HCl pH 7.5, 30 C; pUC19 EMSA: 40 mM Tris-HCl pH 7.5, 0.14 mM EDTA, 35 mM NH4Cl, 3.7% glycerol, 25 C (competition legend 30 C). The conditions noted are these: protein: recombinant; tags: untagged; chain copies: 6; label: 32P on ChiX; partial RNA-RNA duplex.

In data set [3] the target is T2, Hfq102 (wild-type Hfq). Briefly: fluorescence anisotropy; Hill 1.4; asterisked value, footnote not in material (possibly earlier work); Anisotropy: 10 mM Tris-HCl pH 7.5, 50 mM NaCl, 50 mM KCl, 30 C; CTD-FITC competition: 50 mM Tris-HCl pH 7.5, 30 C; pUC19 EMSA: 40 mM Tris-HCl pH 7.5, 0.14 mM EDTA, 35 mM NH4Cl, 3.7% glycerol, 25 C (competition legend 30 C). The conditions noted are these: protein: recombinant; tags: untagged; chain copies: 6; label: Cy3; hairpin with 5' overhang. In general terms: Fluorescence polarisation rises when a labelled molecule tumbles more slowly, as on binding a larger partner.

The target of another data set is T3, E. coli Hfq65-R19D (E. coli, UniProt P0A6X3 1-65, R19D).
T3 construct: Hfq, E. coli, core residues 1-65, rim mutation R19D; Untagged; made by site-directed mutagenesis of pET21b-Hfq
Briefly: fluorescence polarisation; 45 nM FITC-labelled peptide titrated with Hfq65 or variant (0–100 µM Hfq monomer), 50 mM Tris·HCl pH 7.5 (low salt), 30 °C, duplicate, single-site isotherm; Kd in Hfq monomer. The following applies: both partners purified.

Another data set has as its target T4, E. coli Hfq65-R16A (E. coli, UniProt P0A6X3 1-65, R16A).
T4 construct: Hfq, E. coli, core residues 1-65, rim mutation R16A; Untagged; made by site-directed mutagenesis of pET21b-Hfq
The description is as above. The following applies: both partners purified.

In the next data set the target is T5, E. coli Hfq65-Q35A (E. coli, UniProt P0A6X3 1-65, Q35A).
T5 construct: Hfq, E. coli, core residues 1-65, mutation Q35A; Untagged; made by site-directed mutagenesis of pET21b-Hfq
The data set is described as above. The conditions noted are these: both partners purified.

The target of another data set is T6, E. coli Hfq65-K47A (E. coli, UniProt P0A6X3 1-65, K47A).
T6 construct: Hfq, E. coli, core residues 1-65, rim mutation K47A; Untagged; made by site-directed mutagenesis of pET21b-Hfq
The data set is described as above. The following applies: both partners purified.

Data set [4] concerns the target T1, Hfq65 (Hfq core, CTD deleted). Briefly: fluorescence anisotropy; Hill 0.6; asterisked value, footnote not in material (possibly earlier work); Anisotropy: 10 mM Tris-HCl pH 7.5, 50 mM NaCl, 50 mM KCl, 30 C; CTD-FITC competition: 50 mM Tris-HCl pH 7.5, 30 C; pUC19 EMSA: 40 mM Tris-HCl pH 7.5, 0.14 mM EDTA, 35 mM NH4Cl, 3.7% glycerol, 25 C (competition legend 30 C). The conditions noted are these: protein: recombinant; tags: untagged; chain copies: 6; label: 5' FAM.

In data set [5] the target is T2, Hfq102 (wild-type Hfq). As to the kind of experiment: fluorescence anisotropy; Hill 0.7; asterisked value, footnote not in material (possibly earlier work); Anisotropy: 10 mM Tris-HCl pH 7.5, 50 mM NaCl, 50 mM KCl, 30 C; CTD-FITC competition: 50 mM Tris-HCl pH 7.5, 30 C; pUC19 EMSA: 40 mM Tris-HCl pH 7.5, 0.14 mM EDTA, 35 mM NH4Cl, 3.7% glycerol, 25 C (competition legend 30 C). The conditions noted are these: protein: recombinant; tags: untagged; chain copies: 6; label: 5' FAM.

Data set [6] has as its system RNA molecular beacon and Target RNA. The conditions noted are these: ref Zheng et al., 2016; cited from earlier work.
The target of data set [7] is T2, Hfq102 (wild-type Hfq). Briefly: competition; vs pUC19 EMSA; good; Anisotropy: 10 mM Tris-HCl pH 7.5, 50 mM NaCl, 50 mM KCl, 30 C; CTD-FITC competition: 50 mM Tris-HCl pH 7.5, 30 C; pUC19 EMSA: 40 mM Tris-HCl pH 7.5, 0.14 mM EDTA, 35 mM NH4Cl, 3.7% glycerol, 25 C (competition legend 30 C). The conditions noted are these: protein: recombinant; tags: untagged; chain copies: 6.

Data set [8] concerns the target T2, Hfq102 (wild-type Hfq). Briefly: fluorescence anisotropy; Hill 1.2; Anisotropy: 10 mM Tris-HCl pH 7.5, 50 mM NaCl, 50 mM KCl, 30 C; CTD-FITC competition: 50 mM Tris-HCl pH 7.5, 30 C; pUC19 EMSA: 40 mM Tris-HCl pH 7.5, 0.14 mM EDTA, 35 mM NH4Cl, 3.7% glycerol, 25 C (competition legend 30 C). The following applies: protein: recombinant; tags: untagged; chain copies: 6; label: 5' FAM on strand 1; blunt.

Data set [9] has as its target T2, Hfq102 (wild-type Hfq). Briefly: competition; vs pUC19 EMSA; strong; Anisotropy: 10 mM Tris-HCl pH 7.5, 50 mM NaCl, 50 mM KCl, 30 C; CTD-FITC competition: 50 mM Tris-HCl pH 7.5, 30 C; pUC19 EMSA: 40 mM Tris-HCl pH 7.5, 0.14 mM EDTA, 35 mM NH4Cl, 3.7% glycerol, 25 C (competition legend 30 C). The following applies: protein: recombinant; tags: untagged; chain copies: 6.

Data set [10] addresses T1, Hfq65 (Hfq core, CTD deleted). As to the kind of experiment: competition; displaces CTD-FITC peptide; stronger than length trend; Anisotropy: 10 mM Tris-HCl pH 7.5, 50 mM NaCl, 50 mM KCl, 30 C; CTD-FITC competition: 50 mM Tris-HCl pH 7.5, 30 C; pUC19 EMSA: 40 mM Tris-HCl pH 7.5, 0.14 mM EDTA, 35 mM NH4Cl, 3.7% glycerol, 25 C (competition legend 30 C). The following applies: protein: recombinant; tags: untagged; chain copies: 6; minRCRB-like hairpin at 5' end.

*: point of attachment. FITC = O=C1OC2(c3ccc(O)cc3Oc3cc(O)ccc32)c2ccc(NC(=S)*)cc21; Ahx = NCCCCCC(=O)O

B1: ChiX·chiP sRNA-mRNA pair (mixed)
RNA 1: GGGACACCGUCGCUUAAAGUGACGGCAUAAUAAUAAAAAAAUGAAAUUCCUCUUUGACGGGCCAAUAGCGAUAUUGGCCAUUUUUUU
RNA 2: GUAGUCAGCGAGACUUUUCUCAACGCUACUUUUUUAAUUUUUAUUUUUUCGCUGUUCACCUUUGGUGCAGCAAUUUAUACGUCAAAGAGGAUUAACCCAUGCGUACGUUUAGUGGC
For the molecule B1, the binding result (in [1]; with Hfq102 (wild-type Hfq) [2]) was “binds” each time.
CUUCCGUCCAUUUCGGACG (structured_RNA, 5' Thiol-C6) [minRCRB-Cy3]: the Kd in the data set with Hfq102 (wild-type Hfq) [3] stood at 13.9 ± 1.5 nM hexamer.

B2: CTD-FITC (fluorescently-labeled E. coli Hfq CTD peptide) (peptide)
peptide: {FITC-Ahx}-NNAGGGTSSNYHHGSSAQNTSAQQDSEETE-OH
notes: Hfq, E. coli, C-terminal domain peptide; lacks residues 65-72 of the CTD region; also called CTD-FITC peptide
Consider B2, for which the binding result with E. coli Hfq65-R19D, with E. coli Hfq65-R16A, in the data set with E. coli Hfq65-Q35A and with E. coli Hfq65-K47A was “binds” throughout.
Consider CGAAUUUUUUAAGUGC (ssRNA) [D16-FAM], for which the Kd was determined as 20 ± 1.3 nM hexamer in [4] and 15.5 ± 0.9 nM hexamer in the data set with Hfq102 (wild-type Hfq) [5].

B3: Bacillus subtilis Hfq: Hfq of Bacillus subtilis (protein, UniProt O31796 1-73, looked up)
RNA-binding protein Hfq: MKPINIQDQFLNQIRKENTYVTVFLLNGFQLRGQVKGFDNFTVLLESEGKQQLIYKHAISTFAPQKNVQLELE
Take B3: in data set [6], the “in vitro RNA annealing activity” value is “inactive”.
As for GUGGUCAGUCGAGUGGUUUUUU (ssRNA) [Target-U6], in the data set with Hfq102 (wild-type Hfq) [7], the binding result was “binds”.

B4: D16-FAM·R16 (dsRNA)
RNA 1: CGAAUUUUUUAAGUGC
RNA 2: GCACUUAAAAAAUUCG
As for B4, the Kd in the data set with Hfq102 (wild-type Hfq) [8] amounted to 117 ± 12 nM hexamer.
With GUGGUCAGUCGAGUGGAAAAAAAAAAAAAAAAAA (ssRNA) [Target-A18], in the data set with Hfq102 (wild-type Hfq) [9], the binding result is reported as “binds”.
As to TATCCGTATGACGTTCCGGACTATGCGGCTAAGGGGCAATCTTTAC (structured_DNA) [DNA1], the binding result in data set [10] is on record as “binds”.

Source of the values: article PMC5606850, “Acidic C-terminal domains autoregulate the RNA chaperone Hfq” (eLife, 2017).
